Measurements published in the DeepSol protein solubility set.

Assay: soluble on expression in E. coli; label from the status in PepcDB or PDB records
With “MSIEQTLSQYLPSHPKPQGVTFTYGTAGFRMKADKLDYVTFTVGIIASLRSKYLQGKTVGVMITASHNPPEDNGVKVVDPLGSMLESSWEKYATDLANASPSPSNDSEGEKNSLVEVIKNLVSDLKIDLSIPANVVIARDSRESSPALSMATIDGFQSVPNTKYQDFGLFTTPELHYVTRTLNDPDFGKPTEDGYYSKLAKSFQEIYTICESNNEKIDITIDAANGVGAPKIQELLEKYLHKEISFTVVNGDYKQPNLLNFDCGADYVKTNQKLPKNVKPVNNKLYASFDGDADRLICYYQNNDNKFKLLDGDKLSTLFALFLQQLFKQIDPTKISLNIGVVQTAYANGSSTKYVEDVLKIPVRCTPTGVKHLHHEAENFDIGVYFEANGHGTVIFNPEAEKKIFDYKPNNDNEAKAIKVLQNFSQLINQTVGDAISDLLAVLIVVHYLKLSPSDWDNEYTDLPNKLVKVIVPDRSIFKTTNAERTLVEPKGMQDEIDKLVAQYPNGRSFVRASGTEDAVRVYAEADTQNNVEELSKAVSELVK” the “soluble on expression in E. coli” value was “soluble”. With “MEGISKPMERYDSVVFAGMKQDGTIEFIKVYALNEDLAITILDQFLRENNLHPSDFVVIQRGLEDIKGKDIISTRTEEDLSAMLARLGLRLVSNGVLHTRGAEKIYQITAISKSLIERLQGEDKDKVSTIIKEEISIDFSNLKLPEKYMKKLLLLSLMEDTFILNRAELNVPEVIKRAVKGVVSIPRLIERDNIIIKVFDEELHTVQGSYLDRVIITPPVVHWDAHIDELDSFSFQEVEENVYEPPLFVKAMKGFLVLTEPPRDLVVMLLKLKRRGEVKVSLKGRQIRIPLNFTLVVDTKYPERYSGLKFPIRINLPPFDDETFAQMLSMVLGTKVPQDLVAMFPEEYKTFLGVEILSNLWKKLRKRGRKSEIELLKEMATIVTGGII” the “soluble on expression in E. coli” value was “soluble”. In the case of “EIRLSNTQQTYAFLKKRLRDYKNETFAALFLDNQHRIIAYEELFSGTINTATVYPRPIVERVLQLNAAALILAHNHPSGLSDASQQDLAITERIRDALDLVDARLLDHIVIGDNEVYSIFAENKWVCN”, the “soluble on expression in E. coli” value is reported as “not soluble”. In the case of “ISEFMSDITVTNWAGNITYTAKELLRPHSLDALRALVADSARVRVLGSGHSFNEIAEPGDGGVLLSLAGLPSVVDVDTAARTVRVGGGVRYAELARVVHARGLALPNMASLPHISVAGSVATGTHGSGVGNGSLASVVREVELVTADGSTVVIARGDERFGGAVTSLGALGVVTSLTLDLEPAYEMEQHVFTELPLAGLDPATFETVMAAAYSVSLFTDWRAPGFRQVWLKRRTDRPLDGFPYAAPAAEKMHPVPGMPAVNCTEQFGVPGPWHERLPHFRAEFTPSSGAELQSEYLMPREHALAALHAMDAIRETLAPVLQTCEIRTVAADAQWLSPAYGRDTVAAHFTWVEDTAAVLPVVRRLEEALVPFAARPHWGKVFTVPAGELRALYPRLADFGALAGALDPAGKFTNAFVRGVLAG”, the “soluble on expression in E. coli” value is reported as “soluble”. With “MGSDKIHHHHHHMQQAIEQTATGGALRFNGICKVFPGVKALSDISFEARPGSVHALMGENGAGKSTLLKILGGSYQPNSGTLQIGEHSYQFKSTAESIAAGVAVIHQELHLVPEMTVAENLLLGHMPNRFGLINRGAMYRRAGELLKGLADEIDPRTRLGDLSLGQRQLVEIAKAMSRNAHVIAFDEPTSSLSAREIDRLMAIIVRLRDEGRVILYVSHRMEEIFRVCDAVTVFKDGRFVKTFEQMADLDHDRLVTCMVGRDIQDIYNYRPRQHQGPSLRVTGLLGLGLQEPVSFAVQKGEVLGFFGLVGAGRTELFRILSGLTRSTAGSLQLDGQPLTLKSPRDAIAAGVLLCPEDRKKEGIVPLSSVAENINIGARPRHVNLGCLIQGGWERDNARAQIKSMNVKTPSPEQQIMFLSGGNQQKAILGRWLSMPMKVLLLDEPTRGIDVGAKSEIYEIIHTLAADGIAVIVVSSDLMEVMGISDRILVMSEGAITGELNRDEADESRLLQLALPRTRG” the “soluble on expression in E. coli” value was “not soluble”. In the case of “GPGSMGQSIGDRLQNLVLRDEERARLLSLQNTKSILPSLAPSRRLLLVHAIMTLVVPYVTRKVQRKVLEEGWEREPVPTARYRIAKALRYAVVTWSLLSLANTFNFLMTGRYRTLVERILSLRLVYGSQRMMRFTNLLYMNQHVQWQTWMSLFSALSLGR”, the “soluble on expression in E. coli” value is reported as “not soluble”. With “DSYPDSQIEIRTLVGPYENTLVFRDTGPGIDDSILHKIFDDFFSFQKSGGSGLGLGYCQRVMRSFGGRIECKSVTNEFTEFYLHFPVVPNAPKVETLRTPNFYNWNQKVKTK” the “soluble on expression in E. coli” value was “not soluble”. For “MLLHLIYGPTCSGKTDMAIQIAQETGWPVVALDRVQCCPQIATGSGRPLESELQSTRRIYLDSRPLTEGILDAESAHRRLIFEVDWRKSEEGLILEGGSISLLNCMAKSPFWRSGFQWHVKRLRLGDSDAFLTRAKQRVAEMFAIREDRPSLLEELAELWNYPAARPILEDIDGYRCAIRFARKHDLAISQLPNIDAGRHVELIEAIANEYLEHALSQERDFPQWPEDGAGQPVCPVTLTRIRGSRSHHHHHH”, the “soluble on expression in E. coli” value was “soluble”. For “MAHHHHHHMEGSSGHLKSTAVAHNDGQALPPAAGAGHAPPTSNAAAGQQKTDQPPIAAVPVMSVAERAAATAEAERALSLLCTIRAVRRQTEELTVLLLHACGEWGCWSVPTAEEGVACETTRTPLPSSPLPGRIRHSQHLFADLFVAAPLAPTAFCTSSSVSLVGVSDGTAKADLLDLSAGEDADPARLSAASVFAKESACRRERACQALRQALQQQQQRWSLSTAAAATATLAAGAAFLEMALAPPQRAVPPPPPMSVQLDLYAVQPCALQRSIQEWRPRAAQTTAAGATKAGGTSPPEEAASLHCSLQQLLHTLGRQGPQLQSSYDVLHAAAGQRHRTNTRSCTDEQRGVPPREATTGVIKAAEARAVVHKTHGTSAAASDAPQEVEVPPLPSSSSPLAVAPDTLRRTPSSLPRQHSSTTPSSSSQALPSSDTLLSSPVQLAVDHTRLWADPPTPLQRADFSCAAAAAPTSTEISERGARIPVHQAGRSVLEDASSHRTKGKPELEAHVEVEVIGGNADGSHAAAGASSSNSTQVTNMRRTSLSSSTFFHSPVAVDARGGVVGALREVYEASWQPCSNARPSTRPEAAHAVAVAEEKLASQHQEERRSRRCDRGGSATAVELEDSVRRHLTRWMSQQPNDRAWVSGGPGLGPASFLLDPIRHAPGSSRAATRATDATAPALGQGAGRDRRGSRRAVHSGVRVDPIREHAREEGAGAGTESPLDAWPRPGARTAGPRGPGCSRSAAEMSELQLCMCVLLA”, the “soluble on expression in E. coli” value was “soluble”. For “MGALIPSSTLFNIFDFNPKKVRIAFIAVGLRGQTHVENMARRDDVEIVAFADPDPYMVGRAQEILKKNGKKPAKVFGNGNDDYKNMLKDKNIDAVFVSSPWEWHHEHGVAAMKAGKIVGMEVSGAITLEECWDYVKVSEQTGVPLMALENVCYRRDVMAILNMVRKGMFGELVHGTGGYQHDLRPVLFNSGINGKNGDGVEFGEKAFSEAKWRTNHYKNRNGELYPTHGVGPLHTMMDINRGNRLLRLSSFASKARGLHKYIVDKGGESHPNAKVEWKQGDIVTTQIQCHNGETIVLTHDTSLQRPYNLGFKVQGTEGLWEDFGWGEAAQGFIYFEKIMNHSHRWDSSEKWIKEYDHPMWKKHEQKAVGAGHGGMDYFLDNTFVECIKRNEAFPLDVYDLATWYSITPLSEKSIAENGAVQEIPDFTNGKWKNAKNTFAINDDY”, the “soluble on expression in E. coli” value was “soluble”. With “MSLSYRIDGLQYANWSEKIFRQLRAGNVDAVHVTIAYHESFRETVLNFEKWNRWFEQYPDLIMKGQWASDIDTARETGRTAIFFGFQNPSPIEDDIGLVEILHTLGARFMQLTYNNQSLLATGCYEAEDAGITRMGRQVIKEMNRVGLVVDMSHSADRSTIEAVEISERPIAITHANPHDWAPALRNKRDDVIRAVTENGGMLGFSVYPHHLKDKSDCTLDSFCEMIARTAERYGVDHLGIGTDLCQDQPDSVVEWMRTGRWSKEIDFGEGSASAPGFPPMPHWFEDNRDFGNIENGLRATGLNKDEVAGIMGGNWYRFFAQNFVPQGEGHHHHHH” the “soluble on expression in E. coli” value was “soluble”. With “MADFITRAIELDEQYSQAILGINDQNLKVLENLLDCTIFVRGTRATLSGRDFEVSRGIRVLQELQSMAKRGHAISPDAVKNAVAIVAEDTPHSVNAVLASDIVARRGKVIRAKTLGQKDYVDAIDHNTIVFGLGPAGSGKTYLAMAKAVQALQAKQVNRIILTRPAVEAGEKLGFLPGTLNEKIDPYLRPLHDALRDMVDPEIIPKLMEAGIVEVAPLAYMRGRTLNDAFVILDEAQNTTPAQMKMFLTRLGFGSKMVVTGDITQVDLPGGQKSGLRLVRDILRGVEGVHFAELGSDDVVRHQLVGRIVDAYDAYEEQLKDK” the “soluble on expression in E. coli” value was “not soluble”.
